Results on 1 molecule are retold here after patent publication US20050058645A1 (ZENYTH OPERATIONS, published 2005).

The target in one assay is T1, mouse IL-13Rα1 (mouse, UniProt O09030 26-340, limits assumed).
T1 sequence (looked up): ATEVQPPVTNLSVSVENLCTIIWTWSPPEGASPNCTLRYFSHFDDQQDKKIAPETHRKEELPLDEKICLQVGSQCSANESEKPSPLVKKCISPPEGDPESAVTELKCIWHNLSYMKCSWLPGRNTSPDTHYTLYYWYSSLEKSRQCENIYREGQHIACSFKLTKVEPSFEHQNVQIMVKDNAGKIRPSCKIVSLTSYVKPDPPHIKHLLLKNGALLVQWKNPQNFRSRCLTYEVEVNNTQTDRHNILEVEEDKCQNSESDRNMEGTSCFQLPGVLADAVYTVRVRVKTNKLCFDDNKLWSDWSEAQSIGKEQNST
In words: Western blot. In general terms: A western blot detects proteins with antibodies after separation by electrophoresis.

Assay [1] concerns the target T2, FLAG-tagged IL-13Rα1-gp130 chimeric receptor (human).
T2 construct: Extracellular domain of human IL-13Rα1 fused to transmembrane and cytoplasmic domains of gp130; On 293A12-derived cells (lines 3.1.2, 3.2.4) in the reporter assay; in COS cell lysates in the Western blot; also called IL-13Rα1-gp130 fusion; IL13Rα1/gp130 chimera
T2 chain: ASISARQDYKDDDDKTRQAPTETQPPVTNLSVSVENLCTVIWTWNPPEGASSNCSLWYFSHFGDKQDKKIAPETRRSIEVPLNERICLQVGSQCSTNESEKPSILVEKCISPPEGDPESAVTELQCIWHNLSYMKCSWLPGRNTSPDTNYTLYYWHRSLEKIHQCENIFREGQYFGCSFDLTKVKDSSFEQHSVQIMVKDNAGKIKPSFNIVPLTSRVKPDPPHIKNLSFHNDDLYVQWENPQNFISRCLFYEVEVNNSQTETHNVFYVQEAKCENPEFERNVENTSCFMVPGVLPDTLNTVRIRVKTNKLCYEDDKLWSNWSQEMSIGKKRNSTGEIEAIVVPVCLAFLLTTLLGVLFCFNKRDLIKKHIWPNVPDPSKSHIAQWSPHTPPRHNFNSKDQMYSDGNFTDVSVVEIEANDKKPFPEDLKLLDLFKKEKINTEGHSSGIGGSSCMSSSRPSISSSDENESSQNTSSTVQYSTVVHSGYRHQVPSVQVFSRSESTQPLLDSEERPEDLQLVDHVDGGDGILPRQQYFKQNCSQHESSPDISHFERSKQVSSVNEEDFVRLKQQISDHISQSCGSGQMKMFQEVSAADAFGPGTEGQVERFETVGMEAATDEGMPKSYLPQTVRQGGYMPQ
In words: Western blot of lysates of transfected COS cells after SDS-PAGE, probed with mAb 1D9. The text has this: FIG. 3 is a photographic representation showing transient expression of chimeric receptor constructs in COS cells. COS cells were transfected with pEFBOS encoding FLAG-tagged IL-13Rα1-gp130, FLAG-tagged IL-4Rα-gp130 (two independent clones) or control β-gal. Cell lysates were recovered at 72 hrs and after SDS-PAGE and Western transfer, probed with either an anti-FLAG antibody or the IL-13Rα1-specific mAb 1D9.

Assay [2] deals with T3, chimeric mouse IL-13Rα1-Fc (mouse; human, UniProt O09030 26-340).
T3 construct: extracellular domain; Bought (R & D Systems); Preformed disulphide-bonded dimer; also called mIL-13Rα1-Fc; chimeric mouse receptor; not shown: Fc portion of human IgG
T3 sequence (looked up): T1 sequence (looked up)
In words: Biosensor blocking assay: mouse IL-13Rα1-Fc at 2 ug/ml pre-incubated 1 hour with titrated 1D9, then passed over immobilised IL-13. As to the method:
(§1) Initially mouse mAb 1D9 is tested for its ability to inhibit the interaction of the chimeric human and mouse IL-13Rα1-Fc with IL-13 using both an ELISA- and Biosensor-based approach. […] Identical results are obtained with the ELISA-based assay. 1D9 is a potent inhibitor of the chimeric human receptor, compared with a control mAb, but has no effect on the binding of the chimeric mouse receptor to mouse IL-13 (FIG. 6). The Biosensor study incorporated a 1D9 dose-response analysis and a further dose-response analysis was undertaken using the ELISA.

Assay [3] deals with T4, chimeric human IL-13Rα1-Fc (human, UniProt P78552 22-343).
T4 construct: Bought (R & D Systems); Extracellular domain of IL-13Rα1 fused to Fc of human IgG; Expressed as preformed disulphide-bonded dimer; also called hIL-13Rα1-Fc; chimeric human receptor; not shown: Fc portion of human IgG
T4 sequence: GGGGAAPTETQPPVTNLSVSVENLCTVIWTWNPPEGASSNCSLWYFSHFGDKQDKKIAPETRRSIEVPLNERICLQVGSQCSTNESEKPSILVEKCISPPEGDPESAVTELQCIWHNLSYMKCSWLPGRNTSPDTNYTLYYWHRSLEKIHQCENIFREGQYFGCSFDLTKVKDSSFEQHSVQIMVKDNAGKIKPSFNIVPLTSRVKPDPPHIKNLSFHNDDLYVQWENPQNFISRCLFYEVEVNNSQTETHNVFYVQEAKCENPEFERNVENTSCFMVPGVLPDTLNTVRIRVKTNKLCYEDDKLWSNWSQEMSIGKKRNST
The assay is described as follows: Biosensor blocking assay: human IL-13Rα1-Fc at 2 ug/ml pre-incubated 1 hour with titrated 1D9, then passed over immobilised human IL-13 (the blocked ligand). As to the method: as §1

In assay [4] the target is T4, chimeric human IL-13Rα1-Fc. The assay is described as follows: ELISA; 1D9 dose-response, inhibition of chimeric human IL-13Rα1-Fc binding to plate bound IL-13; ELISA dose-response; inhibition of chimeric human IL-13Rα1-Fc binding to IL-13. As to the method: as §1
For orientation: In an ELISA, binding on a coated surface is turned into a signal by an enzyme label.

B1: murine monoclonal antibody 1D9 (antibody, IgG1, V domains shown)
VH: EVKLVESGGGLVKPGGSLKLSCAASGFTFSGYGMSWVRQTPEKRLEWVATISGLGGYTYYPDSVKGRFTISRDNAKNTLYLQMSSLRSDDTAFYYCARRFYGDYVGAMDYWGQGTSVTVSS
VL: DILMTQAAFSNPVTLGTSASISCRSSKSLLHSNGITYLYWYLQKPGQSPQLLIYQMSNLASGVPDRFSCSGSGTDFTLSISRVEAEDVGFYYCAQNLELPFTFGSGTKLEIE
notes: Murine hybridoma antibody (ECACC 03032101); also called mAb 1D9; mouse mAb 1D9
Usually IC50 stands for the concentration that inhibits the measured activity by half. As to B1, the figures for the binding result (in the assay with mouse IL-13Rα1; in assay [1]; in assay [2]) were “no binding”, “binds” and “no binding (tested: about 50 µg/ml)”, respectively. In assay [3], the “IC50 (read off the curve)” value is approximately 2 µg/mL. This molecule also displayed an IC50 in assay [4] of approximately 20 nM.
